# Test results as given in patent US20090074747A1 (IRM, published 2009).
# Where a chain is given by its changes, count along the chain named.
# B1: NV163-1-Fab' (Fab, V domains shown)
# VH: QVQLVQSGSELKKPGASVKVSCKASGYTFTSYGISWVRQAPGQGLEWMGWVNTNTGNPRYAQGFTGRFVFSLDTSVSTAYLQISSLKAEDTAVYYCAREGFIRTVVGAAGRFVYWGQGTLVTVSS
# VL: DIQMTQSPSSLSASVGDRVTITCRASQDIHTRLAWYQQKPGKAPKLLIYWASTRGSGVPSRFSGSGSGTDFTLTISSLQPEDFATYYCQQYSAYPTFGQGTKLEIK
# B2: NV164-1-IgG1 (antibody, V domains shown)
# VH: B1 VH with I34M
# VL: DIQMTQSPSSLSASVGDRVTITCRASQDIHTRLAWYQQKPGKAPKLLIYWASTLQSGVPSRFSGSGSGTDFTLTISSLQPEDFATYYCQQYSAYPTFGQGTKLEIKG
# B3: NV115-3B-IgG1 (antibody, V domains shown)
# VH: B1 VH with S9A, L11V, S31T, V37L, R103T
# VL: B1 VL with K42Q, A43P, G55A, S60D, S65T, P80A, F83V, T85V, A93T
# B4: NV164-1-Fab' (Fab, V domains shown)
# VH: B1 VH with I34M
# VL: B1 VL with R54L, G55Q
# Biological target: T1, human TSLPR on cells (Ba/F3 cells stably overexpressing hTSLPR/hIL7Rα/Stat5-Luc; primary human monocytes) (human, UniProt Q9HC73 23-371)
# T1 sequence (looked up): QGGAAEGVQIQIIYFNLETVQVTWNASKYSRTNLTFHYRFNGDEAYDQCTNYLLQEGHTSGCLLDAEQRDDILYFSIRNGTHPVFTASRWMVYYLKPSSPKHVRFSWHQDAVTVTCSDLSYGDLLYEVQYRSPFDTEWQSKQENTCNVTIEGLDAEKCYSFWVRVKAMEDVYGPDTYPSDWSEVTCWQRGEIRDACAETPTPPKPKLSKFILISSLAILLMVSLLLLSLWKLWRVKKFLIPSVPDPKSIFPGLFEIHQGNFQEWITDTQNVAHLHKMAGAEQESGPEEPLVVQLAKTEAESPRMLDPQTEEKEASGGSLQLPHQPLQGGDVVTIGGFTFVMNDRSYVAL
# Assay: cell-based or functional assay
Binder,"IC50, luciferase reporter gene assay (Stat5-Luc) [nM]","IC50, inhibition of TARC secretion from primary human monocytes [nM]","IC50, luciferase reporter gene assay (Stat5-Luc), natural human TSLP [nM]","IC50, luciferase reporter gene assay (Stat5-Luc), recombinant human TSLP [nM]"
B1,2.7,–,–,–
B2,–,0.011,0.04,0.221
B3,–,0.01,0.05,0.126
B4,4,–,–,–
